These results are taken from doi:10.1101/2023.02.03.526835 (bioRxiv, 2023).

The data set deals with the molecule itself. Description: cryo-EM structure.

B1: Lcb2 (enzyme, S. cerevisiae)
chain: MSTPANYTRVPLCEPEELPDDIQKENEYGTLDSPGHLYQVKSRHGKPLPEPVVDTPPYYISLLTYLNYLILIILGHVHDFLGMTFQKNKHLDLLEHDGLAPWFSNFESFYVRRIKMRIDDCFSRPTTGVPGRFIRCIDRISHNINEYFTYSGAVYPCMNLSSYNYLGFAQSKGQCTDAALESVDKYSIQSGGPRAQIGTTDLHIKAEKLVARFIGKEDALVFSMGYGTNANLFNAFLDKKCLVISDELNHTSIRTGVRLSGAAVRTFKHGDMVGLEKLIREQIVLGQPKTNRPWKKILICAEGLFSMEGTLCNLPKLVELKKKYKCYLFIDEAHSIGAMGPTGRGVCEIFGVDPKDVDILMGTFTKSFGAAGGYIAADQWIIDRLRLDLTTVSYSESMPAPVLAQTISSLQTISGEICPGQGTERLQRIAFNSRYLRLALQRLGFIVYGVADSPVIPLLLYCPSKMPAFSRMMLQRRIAVVVVAYPATPLIESRVRFCMSASLTKEDIDYLLRHVSEVGDKLNLKSNSGKSSYDGKRQRWDIEEVIRRTPEDCKDDKYFVN
modifications: pyridoxal 5'-phosphate (PLP) as internal aldimine with K366
For B1, the binding result is “binds”.
